Usually stoichiometry N stands for the number of molecules, sites or subunits per partner or assembly. The term Kd denotes a measure of binding affinity in units of concentration. Higher therefore signals weaker binding. One may read the koff as a measure of how fast the partners let go of each other. Low values mean slow dissociation, high ones fast dissociation. As usually defined, the kon is the rate constant with which the complex forms. Low readings indicate slower complex formation, high ones faster complex formation.

Consider six molecules from publication PMC10635575.

For data set [1] the following is noted: N-glycosylation at N411.
The target of data set [2] is CZA97.012 SOSIP.664 trimer (HIV-1, Clade C, clone CZA97.012 (97ZA.012)).
For data set [3] the target is unchanged. Description: SPR. A general note: Surface plasmon resonance follows binding to a sensor surface in real time, without labels.
Data set [4] concerns the target CZA97.012 SOSIP.664 trimer, His-tagged, 2G12-affinity- and then SEC-purified (HIV-1 (Clade C, clone CZA97.012)). Description: SPR.
Data set [5] concerns the target CZA97.012 SOSIP.664 trimer (HIV-1, Clade C, clone CZA97.012 (97ZA.012)). Description: cryo-EM structure.
The target is the same in data set [6]. As to the kind of experiment: negative-stain electron microscopy; trimer purified by 2G12-, PGT145- or PGT151-affinity chromatography and then SEC, ~0.02 mg/mL, 2% uranyl formate, 2D class averages.
The target is the same in data set [7]. This is another data set of the same source.

As to “CZA97.012 Env, D411N mutant: D411N (PNGS knock-in) vs parental; neutralization by bNAbs”, the other entry in data set [1] is reported as “no change”.

Regarding “CZA97.012 Env, D411N mutant: D411N (PNGS knock-in) vs parental; neutralization by autologous rabbit serum 2086”, in data set [1], the other entry is recorded as “decreases”.

3BNC117 Fab returned an IC50 of neutralization of CZA97.012 pseudovirus (Env on virions) by 3BNC117 IgG, TZM-bl assay in data set [2] of 0.32 µg/mL. The molecule also gave a stoichiometry N in data set [3] of 2.8. In data set [4], this molecule gave a Kd of 15 nM, a koff of 0.00014 s⁻¹, an association rate constant (kon) of 9700 M⁻¹ s⁻¹ and a stoichiometry N of 2.7.

Take “CZA97.012 Env, D411N mutant: D411N (PNGS knock-in) vs parental; neutralization by autologous rabbit sera 2082 and 2084”: in data set [1], the other entry is listed as “decreases”.

In the case of CZA97.012 SOSIP.664 trimer (complex), the stoichiometry N in data set [5] and in data set [6] was 3 each time.

B1: PGT145 (antibody, V domains shown)
VH: QVQLVQSGAEVKKPGSSVKVSCKASGNSFSNHDVHWVRQATGQGLEWMGWMSHEGDKTGLAQKFQGRVTITRDSGASTVYMELRGLTADDTAIYYCLTGSKHRLRDYFLYNEYGPNYEEWGDYLATLDVWGHGTAVTVSS
VL: EVVITQSPLFLPVTPGEAASLSCKCSHSLQHSTGANYLAWYLQRPGQTPRLLIHLATHRASGVPDRFSGSGSGTDFTLKISRVESDDVGTYYCMQGLHSPWTFGQGTKVEIK
In data set [7], B1 registered an IC50 of neutralization of CZA97.012 pseudovirus (Env on virions) by PGT145 IgG, TZM-bl assay of 7.6 µg/mL.
